Test results taken from paper PMC11402128, “The stability of FKBP9 maintained by BiP is crucial for glioma progression” (Genes & Diseases, 2023).

Target: T1, human recombinant protein BiP (TP305859, Origene) (human, UniProt P11021 19-654)
T1 construct: also called purified BiP; source: bought: Origene (TP305859)
Assay: SPR; BScreen LB 991 label-free microarray system; proteins printed on the chip and photo-cross-linked; analyte proteins at 200, 400, 800, 1600 and 3200 nM in 10 mM HEPES pH 7.0, 3 mM EDTA, 150 mM NaCl, 0.005% P20; 5 uL/min, 10 min association, 6 min dissociation; constants by slope fitting
Conditions: both partners purified

T1 sequence (P11021 19-654): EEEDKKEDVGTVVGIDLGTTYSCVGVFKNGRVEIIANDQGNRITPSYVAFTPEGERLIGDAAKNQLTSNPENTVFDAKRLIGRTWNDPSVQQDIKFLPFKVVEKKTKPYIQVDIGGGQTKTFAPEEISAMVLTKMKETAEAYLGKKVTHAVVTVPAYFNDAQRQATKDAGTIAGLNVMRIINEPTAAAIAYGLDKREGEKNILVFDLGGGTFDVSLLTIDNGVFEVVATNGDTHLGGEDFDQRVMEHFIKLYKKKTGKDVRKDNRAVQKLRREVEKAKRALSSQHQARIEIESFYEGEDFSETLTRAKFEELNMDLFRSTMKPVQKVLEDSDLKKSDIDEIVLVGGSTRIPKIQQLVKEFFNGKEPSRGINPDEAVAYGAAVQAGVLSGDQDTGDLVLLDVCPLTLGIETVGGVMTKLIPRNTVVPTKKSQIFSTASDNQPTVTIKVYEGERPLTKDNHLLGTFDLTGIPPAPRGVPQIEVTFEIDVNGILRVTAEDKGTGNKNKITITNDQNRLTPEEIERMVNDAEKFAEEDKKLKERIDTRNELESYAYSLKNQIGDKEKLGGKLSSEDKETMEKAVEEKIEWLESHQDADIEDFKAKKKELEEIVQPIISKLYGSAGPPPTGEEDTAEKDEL

Kd: 271 nM
B1: human recombinant protein FKBP9 (TP322307, Origene) (natural protein, UniProt O95302 25-570, looked up)
chain: APVAGLGSDAELQIERRFVPDECPRTVRSGDFVRYHYVGTFPDGQKFDSSYDRDSTFNVFVGKGQLITGMDQALVGMCVNERRFVKIPPKLAYGNEGVSGVIPPNSVLHFDVLLMDIWNSEDQVQIHTYFKPPSCPRTIQVSDFVRYHYNGTFLDGTLFDSSHNRMKTYDTYVGIGWLIPGMDKGLLGMCVGEKRIITIPPFLAYGEDGDGKDIPGQASLVFDVALLDLHNPKDSISIENKVVPENCERISQSGDFLRYHYNGTLLDGTLFDSSYSRNRTFDTYIGQGYVIPGMDEGLLGVCIGEKRRIVVPPHLGYGEEGRGNIPGSAVLVFDIHVIDFHNPSDSISITSHYKPPDCSVLSKKGDYLKYHYNASLLDGTLLDSTWNLGKTYNIVLGSGQVVLGMDMGLREMCVGEKRTVIIPPHLGYGEAGVDGEVPGSAVLVFDIELLELVAGLPEGYMFIWNGEVSPNLFEEIDKDGNGEVLLEEFSEYIHAQVASGKGKLAPGFDAELIVKNMFTNQDRNGDGKVTAEEFKLKDQEAKHDEL
notes: also called purified FKBP9; source: bought: Origene (TP322307)
